In patent US20180186873A1:

Tests used:
[1] = molecular target: recombinant human IL-5 (human) (UniProt P05113); assay: cell-based or functional assay
[2] = molecular target: cynomolgus monkey IL-5 (cynomolgus monkey); assay: cell-based or functional assay

Substance: Mepolizumab (antibody)
- IC50, inhibition of IL-5 driven proliferation of TF-1.6G4 cells (Mean, pM) [1]: 534 pM
- IC50, inhibition of IL-5 driven proliferation of TF-1.6G4 cells (Mean, pM) [2]: 584 pM
